Here are results for 4 substances from paper PMC7386247.

The subject of data set [1] is PARP1 (Homo sapiens). In words: fluorescence polarization. The conditions noted are these: not stated in the material (methods in supplement). Background: Polarisation of emitted light reports the rotation of a fluorescent probe.
Data set [2] concerns PARP2 (Homo sapiens). In words: fluorescence polarization. The conditions noted are these: not stated in the material (methods in supplement).

One may read the Kd as the free concentration of one partner at which half of the binding sites on the other are occupied at equilibrium, for simple one-to-one binding. The low end stands for a tighter complex, the high end for a looser complex. As to tRNALeu, the Kd came out at 159 nM in data set [1] and 37 nM in data set [2]. p18mer DNA: the Kd was 13 nM in data set [1] and 59 nM in data set [2]. For gas5, in that order: 350 nM and 40 nM.

Consider 19mer, for which, in data set [2], the Kd amounted to 55 nM.
